Assay [1] concerns the target T1, amphyphisin SH3 (AMPH_HUMAN), P49418.
T1 chain: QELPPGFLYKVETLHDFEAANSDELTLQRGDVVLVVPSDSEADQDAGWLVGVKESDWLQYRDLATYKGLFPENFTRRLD
Put plainly: SPOT array.

The target in assay [2] is endophilin SH3 (SH3G2_HUMAN), Q99962. Put plainly: SPOT array.

B1: Q9NSG0 388-402 (peptide)
chain: TKTPPPRPPLPTQQ
On to B1, for which the normalised SPOT signal, Boehringer light units (BLU); mean over the file's lines of this peptide amounted to 708 in assay [1] and 13500 in assay [2].

B2: P55201 901-914 (peptide)
chain: TAGPPKRPGRPPKN
As to B2, the values for the normalised SPOT signal, Boehringer light units (BLU); mean over the file's lines of this peptide in assay [1] and in assay [2] were 5130 and 93.8, respectively.

B3: O95206 1031-1044 (peptide)
chain: TLLSPPRPGRLPDL
B3: the normalised SPOT signal, Boehringer light units (BLU); mean over the file's lines of this peptide in assay [1] amounted to 443; in assay [2], 192.

B4: Q96NX2 23-37 (peptide)
chain: TLKRPKRPPLKEFF
Turning to B4, the normalised SPOT signal, Boehringer light units (BLU); mean over the file's lines of this peptide in assay [1] was 2720; in assay [2], 15000.

B5: Q13329 90-103 (peptide)
chain: SEGSLTRPKKAIPA
As for B5, the normalised SPOT signal, Boehringer light units (BLU); mean over the file's lines of this peptide came out at 76.6 in assay [1] and 128 in assay [2].

B6: O43539 57-71 (peptide)
chain: TIPKPPKPPDKPLM
B6: the normalised SPOT signal, Boehringer light units (BLU); mean over the file's lines of this peptide in assay [1] worked out at 59.5; in assay [2], 1750.

B7: Q9Y373 238-251 (peptide)
chain: TEEELRRPEMKNFF
As to B7, the normalised SPOT signal, Boehringer light units (BLU); mean over the file's lines of this peptide in assay [1] was determined as 34.2; in assay [2], 28.7.

B8: Q9BZS0 2280-2294 (peptide)
chain: TGGGPGRPPDWTPH
Turning to B8, the normalised SPOT signal, Boehringer light units (BLU); mean over the file's lines of this peptide was 43.3 in assay [1] and 668 in assay [2].

B9: Q9UBY0 781-795 (peptide)
chain: TEGIPPKPPPRLVW
Consider B9, for which the normalised SPOT signal, Boehringer light units (BLU); mean over the file's lines of this peptide in assay [1] was determined as 2770; in assay [2], 1260.

B10: Q9ULR8 121-134 (peptide)
chain: TENAPSRPLRRRRK
For the molecule B10, the values for the normalised SPOT signal, Boehringer light units (BLU); mean over the file's lines of this peptide in assay [1] and in assay [2] were 18800 and 1650, respectively.

B11: Q9NYK9 18-31 (peptide)
chain: TLLALQRPQRLHHH
With B11, the normalised SPOT signal, Boehringer light units (BLU); mean over the file's lines of this peptide in assay [1] was determined as 3250; in assay [2], 877.

B12: Q9BXL6 817-830 (peptide)
chain: TLVWPHRPARPRPV
As for B12, the normalised SPOT signal, Boehringer light units (BLU); mean over the file's lines of this peptide in assay [1] is 613; in assay [2], 2240.

B13: O75521 116-129 (peptide)
chain: TKIMFNRPKKKNAI
In the case of B13, the normalised SPOT signal, Boehringer light units (BLU); mean over the file's lines of this peptide in assay [1] amounted to 80.4; in assay [2] it was 112.

B14: Q9UBI4 175-188 (peptide)
chain: TKALLKRPLREIQM
Turning to B14, the normalised SPOT signal, Boehringer light units (BLU); mean over the file's lines of this peptide in assay [1] was found to be 866; in assay [2] it was 170.

B15: O94847 104-117 (peptide)
chain: TIPPFERPFKDHQV
Turning to B15, the normalised SPOT signal, Boehringer light units (BLU); mean over the file's lines of this peptide in assay [1] was 0; in assay [2] it was 127.

B16: P40126 196-209 (peptide)
chain: TLLGPGRPYRAIDF
In the case of B16, the normalised SPOT signal, Boehringer light units (BLU); mean over the file's lines of this peptide in assay [1] stood at 184; in assay [2] it was 488.

B17: O75598 106-119 (peptide)
chain: SEHNPKRPVTSEQG
Consider B17, for which the normalised SPOT signal, Boehringer light units (BLU); mean over the file's lines of this peptide in assay [1] came to 33.3; in assay [2] it was 19.4.

B18: Q9UBS0 458-472 (peptide)
chain: TAPLPIRPPSGTKK
Regarding B18, the values for the normalised SPOT signal, Boehringer light units (BLU); mean over the file's lines of this peptide in assay [1] and in assay [2] were 468 and 1100, respectively.

B19: Q9Y2E4 59-73 (peptide)
chain: TLKRPKRPPLREFF
Consider B19, for which the normalised SPOT signal, Boehringer light units (BLU); mean over the file's lines of this peptide was found to be 3950 in assay [1] and 24900 in assay [2].

B20: Q9NQX6 85-98 (peptide)
chain: SEGTLERPQRSRGR
Turning to B20, the normalised SPOT signal, Boehringer light units (BLU); mean over the file's lines of this peptide was 930 in assay [1] and 125 in assay [2].

B21: P54098 556-569 (peptide)
chain: TELLPKRPQHLPGH
Take B21: the normalised SPOT signal, Boehringer light units (BLU); mean over the file's lines of this peptide worked out at 34.4 in assay [1] and 21.9 in assay [2].

B22: Q9UKN7 2430-2443 (peptide)
chain: TEDTPRRPPEPKPI
As to B22, the normalised SPOT signal, Boehringer light units (BLU); mean over the file's lines of this peptide in assay [1] and in assay [2] was 16.8 in each case.

B23: Q9H6K5 343-356 (peptide)
chain: TLQAPRRPPTPGPD
As for B23, the normalised SPOT signal, Boehringer light units (BLU); mean over the file's lines of this peptide in assay [1] turned out to be 35.3; in assay [2] it was 1890.

B24: Q9UPN7 147-160 (peptide)
chain: TLLEPRRPRSESVT
B24: the normalised SPOT signal, Boehringer light units (BLU); mean over the file's lines of this peptide in assay [1] is 29.7; in assay [2], 113.

B25: Q9H6A9 359-372 (peptide)
chain: TAVPPKRPYGTQRT
In the case of B25, the normalised SPOT signal, Boehringer light units (BLU); mean over the file's lines of this peptide in assay [1] was found to be 37.8; in assay [2], 398.

B26: Q96PE2 193-206 (peptide)
chain: TEGRLRRPQQQQER
Turning to B26, the normalised SPOT signal, Boehringer light units (BLU); mean over the file's lines of this peptide in assay [1] was found to be 30; in assay [2], 0.

B27: Q96M73 46-59 (peptide)
chain: TDNKFRRPWTRVSA
Take B27: the normalised SPOT signal, Boehringer light units (BLU); mean over the file's lines of this peptide is 40.3 in assay [1] and 20.5 in assay [2].

B28: Q9UDN0 30-43 (peptide)
chain: TAKKIKRPKFTVPQ
On to B28, for which the results for the normalised SPOT signal, Boehringer light units (BLU); mean over the file's lines of this peptide in assay [1] and in assay [2] were 42.6 and 15.1, respectively.

B29: Q9BZL6 226-240 (peptide)
chain: TELLPRRPPSSSSS
For B29, the normalised SPOT signal, Boehringer light units (BLU); mean over the file's lines of this peptide in assay [1] amounted to 118; in assay [2], 339.

B30: Q969I6 440-453 (peptide)
chain: TLLFPKRPFSWIRH
On to B30, for which the normalised SPOT signal, Boehringer light units (BLU); mean over the file's lines of this peptide came to 123 in assay [1] and 1590 in assay [2].

B31: Q9BT43 129-143 (peptide)
chain: TILLPKRPPKTTED
B31: the normalised SPOT signal, Boehringer light units (BLU); mean over the file's lines of this peptide in assay [1] turned out to be 282; in assay [2] it was 916.

B32: Q9NUN8 9-22 (peptide)
chain: SEEHPRRPDHGRRG
As to B32, the normalised SPOT signal, Boehringer light units (BLU); mean over the file's lines of this peptide in assay [1] came out at 17.2; in assay [2], 55.3.

B33: Q02817 4993-5006 (peptide)
chain: THSIIKRPDNQHVI
Turning to B33, the normalised SPOT signal, Boehringer light units (BLU); mean over the file's lines of this peptide in assay [1] worked out at 38.6; in assay [2] it was 56.3.

B34: Q9HAS2 64-77 (peptide)
chain: TKIPFKRPRGHNFS
In the case of B34, the normalised SPOT signal, Boehringer light units (BLU); mean over the file's lines of this peptide is 53.7 in assay [1] and 22.1 in assay [2].

B35: BAC03441 170-184 (peptide)
chain: TKDSPGKPPMAPPS
As to B35, the normalised SPOT signal, Boehringer light units (BLU); mean over the file's lines of this peptide worked out at 90.4 in assay [1] and 80.7 in assay [2].

B36: Q96T37 401-414 (peptide)
chain: TEVDIKRPSRGQTS
Take B36: the normalised SPOT signal, Boehringer light units (BLU); mean over the file's lines of this peptide in assay [1] worked out at 656; in assay [2], 77.7.

B37: Q9HAM8 259-272 (peptide)
chain: THLLIKRPPFFHYR
Take B37: the normalised SPOT signal, Boehringer light units (BLU); mean over the file's lines of this peptide in assay [1] was 33.8; in assay [2], 2020.

B38: Q9UFR3 88-101 (peptide)
chain: TFGIPLRPNRGRGG
Regarding B38, the normalised SPOT signal, Boehringer light units (BLU); mean over the file's lines of this peptide came to 8170 in assay [1] and 583 in assay [2].
